Measured values taken from the supplement of paper PMC12764529.
± gives the half width of the 95% confidence interval.

Assays:
[1] = folding stability dG unfold (combined trypsin and chymotrypsin); higher = more stable
Summary of the method: (§1)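 Mini-proteins designed to be under 80 residues and free of cysteine were carried in a PA-tagged cDNA display construct and digested with trypsin and with chymotrypsin. Each protease was applied at 11 threefold-diluted concentrations, alongside a no-protease condition, before sequencing. K50 came from Bayesian fitting of the sequencing counts, and unfolding free energy was obtained by comparing it with a sequence-predicted unfolded-state K50 and a shared folded-state K50, for each protease separately or for both together. Designs were retained only if their AlphaFold2 dimer inter-PAE exceeded 15.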

[2] = folding stability dG unfold from trypsin proteolysis; higher = more stable
Summary of the method: as §1

[3] = folding stability dG unfold from chymotrypsin proteolysis; higher = more stable
Summary of the method: as §1

Sequence | folding stability dG unfold [1] | folding stability dG unfold [2] | folding stability dG unfold [3]
SAGGSAGGSASTTVTYVEIKVTNPNPPGTPVAEYLIPLSEITEEMIEKLEKEGGLKVEVTVVLSAGGSAGGS [r12_398_JUSTAS] | 1.41 ± 0.058 kcal/mol | 1.2 ± 0.12 kcal/mol | 1.44 ± 0.033 kcal/mol
SAGGSMVIRVETPEEAEEAARELAERLRELFPEVKELEIKVKVEVVDEETGEEKEYEFTIKLKLPPSAGGSA [r2_393_TrROS_Hall] | 2.62 ± 0.24 kcal/mol | 2.54 ± 0.12 kcal/mol | 2.62 ± 0.098 kcal/mol
SAGMLTYRFTVPAEEAEEAAEELAETLRRELGLPEEVKVEVKVVEYDPETGLVTVEAVVYRPLPEGVEPSAG [r5_537_TrMRF] | 4.5 ± 0.14 kcal/mol | 4.21 ± 0.16 kcal/mol | 4.44 ± 0.11 kcal/mol
SAGGMKVTILEVKPDEVVVKTSDGKTYVFPEVIKELKEKGGGVLPTKEEIAEYLKKNNIPVDDVEFGLSAGG [r13_610_JUSTAS] | 1.6 ± 0.15 kcal/mol | 0.436 ± 0.1 kcal/mol | 1.9 ± 0.058 kcal/mol
SAGGSPIIRVKVTYYPPDGSVTVYLPADSVDELIDALNSVPDIPVTPTDGDTIIASTPDAIVEITVESSAGG [r13_143_TrMRF] | 0.717 ± 0.097 kcal/mol | 0.471 ± 0.031 kcal/mol | 0.849 ± 0.032 kcal/mol
SAARVTVTYDPATNTVTVTVEVEVDGVTVTVTATVTFVDGRLVLTVTVEVRPPPPPPSAEQLAALRAAASAG [r14_930_TrROS_Hall] | 2.74 ± 0.33 kcal/mol | 2.92 ± 0.19 kcal/mol | 2.69 ± 0.072 kcal/mol
SAGGSAEIPPGAKLEIDEMSFDPGNGRIEMMFKIEDPDGEPLWQIRVSWEFNPENGKMKLDIEIMPSAGGSA [r15_1028_TrROS] | 3.49 ± 0.14 kcal/mol | 2.51 ± 0.19 kcal/mol | 3.8 ± 0.12 kcal/mol
SAGGSAGGSMLPLPIESIEVVPRRAPGGKTYYVAFIRLKADGKPLVIEFEADNPGEALEKLEASAGGSAGGS [r20_238_TrMRF] | 1.34 ± 0.14 kcal/mol | 1.14 ± 0.046 kcal/mol | 1.46 ± 0.11 kcal/mol
SAGGSAGGGGVAEEVAALLKALGLKVKKIEVEVEEVPPDKKVARVKVTAELPTKKVTFELRVEVSAGGSAGG [r6_532_TrMRF] | 2.76 ± 0.28 kcal/mol | 1.97 ± 0.092 kcal/mol | 3 ± 0.068 kcal/mol
SPKGIYIFMIQVKWKNPNGNEWTFPIMVPMDEMPEEELRDFIREFFPGFDDVDIEPQVMRIPPSPEAREKSA [r9_841_TrROS] | 2.57 ± 0.28 kcal/mol | 2.3 ± 0.16 kcal/mol | 2.75 ± 0.17 kcal/mol
SADPPDAVKIEIRIYMMEYDPDGKWEQREFNIEIEVAPDGHIIIRLGNWWIVIDPKEGEVTEIFPGFRFSAG [r14_821_TrROS] | 3.14 ± 0.39 kcal/mol | 3.43 ± 0.13 kcal/mol | 3.67 ± 0.18 kcal/mol
SAGGSAGGSAGPKILSIEEYDPENGYITVIAELTGKPVRMKVKFIPGKKEIKIIEIEPLDSAGGSAGGSAGG [r11_1066_TrMRF] | 2.36 ± 0.1 kcal/mol | 1.81 ± 0.07 kcal/mol | 2.49 ± 0.036 kcal/mol
SAGGSAMVTVTRYPDGTYVVEATGRGDSRTFTLDLPLEEIKEVLEKEGIKIDKIEVKPAPVDPAKVSAGGSA [r15_576_JUSTAS] | 1.4 ± 0.05 kcal/mol | 1.268 ± 0.012 kcal/mol | 1.5 ± 0.034 kcal/mol
SAGSSETYSFKSPEEAKKKLKEEYGVSVEELPGNRVRINLVLDNKPVVVLIDTSTNLATVVSPEVVERKSAG [r14_402_JUSTAS] | -0.257 ± 0.23 kcal/mol | -0.219 ± 0.21 kcal/mol | -0.291 ± 0.8 kcal/mol
SAGGMKIIPITPEMIEEAKKLGLTPEDEAFEFEVTLPNGEVLRGTLIIPPDNPDIPVEAEPYLNLDKSAGGS [r16_497_TrMRF] | 0.703 ± 0.18 kcal/mol | 0.555 ± 0.1 kcal/mol | 0.904 ± 0.092 kcal/mol
SAGAPGEVTVTVVRRPRVETEEERRRRRAPPPPVVTLTLKVPPGWVVRRVAFNADGEIVSVELYRRDDLSAG [r5_750_TrROS_Hall] | 2.54 ± 0.06 kcal/mol | 1.38 ± 0.029 kcal/mol | 3.03 ± 0.031 kcal/mol
SAGGSAGGPSYTIQFPYPPGMPPWRLQKLLEEAGYPPPEIEYNPKNGSHWITFSPEVRDAFKELSAGGSAGG [r6_307_TrROS] | 0.676 ± 0.21 kcal/mol | 0.476 ± 0.1 kcal/mol | 0.845 ± 0.17 kcal/mol
SAGGSAGGSKPIPYRVKIPSPNGKTHKFDVQIQVRPDGMIDIHVPSGKTIHIPANYPVEIEPWSAGGSAGGS [r20_227_TrROS] | 0.056 ± 0.21 kcal/mol | 0.132 ± 0.13 kcal/mol | -0.208 ± 0.52 kcal/mol
SAGGMHLVIPFDSPEEALEAAKELKKEFEEKGYTVKVYYFPETGDIHVLVEMKTDGKTKYLNVTVPFPSAGG [r13_641_TrMRF] | 1.73 ± 0.057 kcal/mol | 0.83 ± 0.034 kcal/mol | 2.05 ± 0.036 kcal/mol
SAGGSGQKFEIDRMIHIPLPNGRMLYIMRMKNPIMIMEFNGDNFRPVATVPNDDIPPEIRDLIKKLSAGGSA [r2_133_TrROS] | 2.27 ± 0.12 kcal/mol | 1.95 ± 0.068 kcal/mol | 2.25 ± 0.11 kcal/mol
SAGGSAGGSMVFESTSVYTFPEQNTVVVTKTTTTVTKTPDGSSSVSTSTTTTVLTVPPPEPLVSAGGSAGGS [r12_277_JUSTAS] | 2.85 ± 0.3 kcal/mol | 2.64 ± 0.12 kcal/mol | 3.64 ± 0.13 kcal/mol

Sequence | folding stability dG unfold [1] | folding stability dG unfold [2] | folding stability dG unfold [3]
SAGSKEALLSDPSFEPVEVEIHLEIEVPGVTPEEAEAIAKELEKEITEELKKKGIKNVKVTVTIRYVERSAG [r5_431_JUSTAS] | 2.24 ± 0.071 kcal/mol | 1.71 ± 0.044 kcal/mol | 2.49 ± 0.057 kcal/mol
MEEIKNLPGVKYEPIIEDGEIRLVRFEIPKEVFEKFGKPPVILLVEFSKDGKYRILPESIPKLLELGIIPGS [r1_256_TrMRF] | 2.27 ± 0.052 kcal/mol | 1.85 ± 0.023 kcal/mol | 2.52 ± 0.058 kcal/mol
SAGGSAGGSAGGKVKVLSVFELPNNKRLVLIETPSGKKILIVTDSSDPDKVKEKAKEIASAGGSAGGSAGGS [r10_472_TrMRF] | 1.73 ± 0.037 kcal/mol | 1.54 ± 0.02 kcal/mol | 1.822 ± 0.017 kcal/mol
SSMSSSPLGSDPATGTTYYLSVSNNSTTLSTVTPAPVLPISPEELEKIAKELAKKNPKLAKKAKELAEKLKS [r1_330_JUSTAS] | -0.0137 ± 0.3 kcal/mol | -0.301 ± 0.2 kcal/mol | 0.123 ± 0.25 kcal/mol
SAGGDKKWTAEFDVRKRDDTVEVTLTFTDPNGNETTETYTLTDDELAKLLAELPPEFKNVTRNEVLESAGGS [r16_298_JUSTAS] | 1.85 ± 0.16 kcal/mol | 1.57 ± 0.043 kcal/mol | 2.04 ± 0.11 kcal/mol
SEPLTPEEVEKFAEWIAKELNEEHGKEVKVEVEYHPDDGYFRAEIEIPNGRRIEITFNPEFGQLDIEVEDSA [r9_9_TrROS] | 1.71 ± 0.27 kcal/mol | 1.31 ± 0.18 kcal/mol | 2.36 ± 0.062 kcal/mol
SAGMIEISEEGDTLTVTVPPGVSLEEVREYVEKKYPGMDLQEITETALPDGTTTVTFNVKKNPPSPKLLSAG [r5_110_JUSTAS] | 0.316 ± 0.16 kcal/mol | -0.658 ± 0.37 kcal/mol | 0.699 ± 0.23 kcal/mol
SAGGSAPVTEGPNSITVTRDLDPSESEEEVRALAEEILAALPADVSVSVEFDPETGTATITITFPGSAGGSA [r15_210_JUSTAS] | 2.15 ± 0.055 kcal/mol | 2.31 ± 0.054 kcal/mol | 1.95 ± 0.051 kcal/mol
SAGGMPVPVLIVVPEDKIEEIIKKIREETDEDVEIKAFKLPDGRVLLLITFNDPQLAEDFLKKFGFGSAGGS [r16_172_TrMRF] | 5.13 ± 0.17 kcal/mol | 4.27 ± 0.23 kcal/mol | 5.17 ± 0.14 kcal/mol
SAGGPRVEVEEVELEGDYLVVRARVEVPLDDGTYEFELTLVLPVPPPPLPLPPVDPRFPRAPDDDLVSAGGS [r8_234_TrMRF] | 0.971 ± 0.13 kcal/mol | 0.584 ± 0.073 kcal/mol | 1.33 ± 0.073 kcal/mol
SAGGKMVIVKIRIKERKVKVEKTKDGKEKKVEVEEKEKEITLIVEGSEEEVKKLAEELEKLGLEVEVISAGG [r13_452_TrROS_Hall] | 2.28 ± 0.14 kcal/mol | 1.2 ± 0.063 kcal/mol | 2.52 ± 0.079 kcal/mol
SAGGSAGGSAMQRDPDGKPQPQVTFRIPADDMPEEQIKKHLPPEFADNFRDNMPEGDTITLSAGGSAGGSAG [r3_326_TrROS] | -0.239 ± 0.14 kcal/mol | -0.688 ± 0.19 kcal/mol | -0.105 ± 0.25 kcal/mol
SAGGSAGGSAGGAELLPSDVLKFTLTIQPDLKGSPPIIVEVTISVPPEVLEKPEIEVSLSAGGSAGGSAGGS [r10_672_JUSTAS] | 2.7 ± 0.15 kcal/mol | 2.12 ± 0.15 kcal/mol | 2.87 ± 0.093 kcal/mol
SAGGSAGGSAGGSMLKGKIISVDPKKGYAIIYIPGKKKLLIIKFDPDNTIVEIKEAPLSSAGGSAGGSAGGS [r4_192_TrMRF] | 2.44 ± 0.33 kcal/mol | 2.82 ± 0.35 kcal/mol | 2.21 ± 0.14 kcal/mol
SAGGSAGGSAKKPPVYKIKIKVVNKKTKKEIEIEVEVKAGKTPEEIAKELAKKFGIEKVEIESAGGSAGGSA [r18_58_TrROS_Hall] | 1.45 ± 0.27 kcal/mol | 1.14 ± 0.12 kcal/mol | 1.47 ± 0.18 kcal/mol
SAGMKKLPSEEERKKAEELAKKGELVIIIRLKNGEKLVIVVKSEEELKELLKKLPLEIEEIYVFKVKKKSAG [r5_481_TrROS_Hall] | 2.07 ± 0.16 kcal/mol | 1.72 ± 0.028 kcal/mol | 2.26 ± 0.049 kcal/mol
SAGGSAGGSAGGMKVIKLPGLTVEIEPGYSPSEPVKITITDPKTGKVTEYEIKIPPEELPSAGGSAGGSAGG [r7_834_JUSTAS] | 1.13 ± 0.042 kcal/mol | 0.915 ± 0.052 kcal/mol | 1.26 ± 0.021 kcal/mol
SAGGGPDLVIDVEILEIRVEPEPGKTATIRVRALIYNPETDTWTLAEFEIRIPDDGSVEVRFRVEPLRSAGG [r13_917_TrMRF] | 3.76 ± 0.074 kcal/mol | 3.08 ± 0.082 kcal/mol | 4.13 ± 0.05 kcal/mol
SAGGSAGGMLLSSEEELEEELKRVREEGIGEVEVQVVDEKGNIHTLPTFVENPGPEPLPNEKLLSAGGSAGG [r6_258_JUSTAS] | 0.628 ± 0.13 kcal/mol | 0.558 ± 0.066 kcal/mol | 0.643 ± 0.049 kcal/mol
SAGMTVEELKAQPKNATVTSVSRDPSTGLYTVTIERPDSNGKWVTHTLTLTGPEAVAAAVAAGLPSLAASAG [r5_905_JUSTAS] | 2.16 ± 0.087 kcal/mol | 1.31 ± 0.026 kcal/mol | 2.46 ± 0.043 kcal/mol
SAGGSAGGSAGGKHKIPITNVHVSPPNGYIHVTIRFPGDGKPIEIHFPVPPGEPITIEISAGGSAGGSAGGS [r10_940_TrROS] | 2.74 ± 0.2 kcal/mol | 2.28 ± 0.14 kcal/mol | 3.53 ± 0.27 kcal/mol
